2 molecules from doi:10.1101/2023.12.08.570772 (bioRxiv, 2023) can be followed below.

The chains are these.
T1: Full length MAGEA4 M161D (human, UniProt P43358 1-317, M161D)
T1 sequence: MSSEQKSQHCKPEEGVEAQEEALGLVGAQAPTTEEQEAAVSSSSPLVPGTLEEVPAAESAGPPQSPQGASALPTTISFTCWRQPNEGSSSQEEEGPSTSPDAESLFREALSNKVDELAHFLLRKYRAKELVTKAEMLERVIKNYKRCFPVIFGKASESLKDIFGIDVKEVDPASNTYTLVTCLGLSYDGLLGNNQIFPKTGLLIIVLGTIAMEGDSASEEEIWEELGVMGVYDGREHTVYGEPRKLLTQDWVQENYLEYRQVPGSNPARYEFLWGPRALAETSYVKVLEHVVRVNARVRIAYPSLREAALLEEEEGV

B1: Full length MAGEA4 WT (N-terminal histidine tag) (natural protein)
chain: T1 sequence with D161M

In one assay the target is T1, Full length MAGEA4 M161D. Description: ITC. (In ITC the heat of successive injections is recorded.)
Assay [1] deals with B1. Briefly: ITC.
The target of assay [2] is His-tagged full length (FL) wildtype (WT) RAD18 (human, UniProt Q9NS91 1-495). Description: cross-linking.

Substitutions are numbered along the chain they refer to.

Chain of His-tagged full length (FL) wildtype (WT) RAD18 (Q9NS91 whole entry): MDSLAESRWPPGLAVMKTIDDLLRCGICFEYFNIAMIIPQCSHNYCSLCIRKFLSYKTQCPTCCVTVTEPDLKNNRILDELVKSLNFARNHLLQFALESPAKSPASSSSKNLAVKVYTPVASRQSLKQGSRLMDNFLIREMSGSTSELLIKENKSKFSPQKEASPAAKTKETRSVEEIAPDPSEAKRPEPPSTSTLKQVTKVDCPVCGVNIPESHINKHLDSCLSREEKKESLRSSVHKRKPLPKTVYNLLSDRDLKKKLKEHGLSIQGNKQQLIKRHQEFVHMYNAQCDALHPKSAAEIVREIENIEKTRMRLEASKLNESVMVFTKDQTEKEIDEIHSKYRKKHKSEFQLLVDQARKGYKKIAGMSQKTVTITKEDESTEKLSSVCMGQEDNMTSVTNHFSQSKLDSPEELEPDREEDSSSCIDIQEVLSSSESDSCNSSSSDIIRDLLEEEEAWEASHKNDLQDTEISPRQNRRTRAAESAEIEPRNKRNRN

What is called Kd is the concentration at which binding is half-saturated. A low value points to a tighter complex. Regarding SKYRKKHKSEFQLLVDQARKGYKKIAG [RAD18 R6BD peptide (27 amino acid peptide containing amino acids 340-366 of RAD18)], the equilibrium dissociation constant (Kd) with Full length MAGEA4 M161D was 1660 nM; in assay [1], 405 nM.
For B1, the binding result in assay [2] is given as “binds”.
